From patent EP4786493A1

Target: murine Claudin 18.2 expressed on HEK293 cells (murine) (UniProt P56857)
Test: flow cytometry on HEK293 cells expressing murine Claudin 18.2

Sequence of murine Claudin 18.2 expressed on HEK293 cells (murine) (P56857 whole entry): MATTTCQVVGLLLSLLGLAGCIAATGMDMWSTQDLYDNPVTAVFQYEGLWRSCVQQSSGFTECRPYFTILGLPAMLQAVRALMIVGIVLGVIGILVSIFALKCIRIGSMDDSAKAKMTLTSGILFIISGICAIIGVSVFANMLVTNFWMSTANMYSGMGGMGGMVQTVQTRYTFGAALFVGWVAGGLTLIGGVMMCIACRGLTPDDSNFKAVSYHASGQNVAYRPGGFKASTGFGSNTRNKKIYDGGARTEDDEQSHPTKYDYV

Binder	EC50 [nM]
AHP32913 (antibody, V domains shown) VH: QVQLMQSGGGLVQPGGSLRLSCAASRNIGILSTMGWYRQAPGKQRELVATITRGGSTNYGEFVKGRFTISRDNAKNTVYLQMNSLKPEDTAVYYCNVDESWLGTQSYWGRGTQVTVSS VL: QAVVTQEPSLTVSPGGTVTLTCGSSTGPVTSGHYPHWYQQKPGQAPKTLIFDTSHKHPWTPAQFSGSLLGGKAALTLSGAHPEDEAEYYCLLSYSGVRVFGGGTQLIIL	0.728
AHP32982 (antibody, V domains shown) VH: QVQLVQSGGGLVQPGGSLRLSCAASRNIGILSTMGWYRQAPGKQRELVATITRGGSTNYGEFVKGRFTISRDNAKNTVYLQMNSLKPEDTAVYYCNVDESWLGTQSYWGRGPLVTVSS VL: DIVMTQSPSSVSASVGDRVTITCRASQGISSWLAWYQQKPGKAPKLLIYAASSLQSGVPSRFSGSGSGTDFTLTISSLQPEDFATYYCQQANSFPLTFGGGTKVEIK	4.03
AHP30826 (antibody, V domains shown) VH: QVQLQQSGGGSVQAGGSLRLSCAASGTILSINAMGWYRQAPGKQRELVATITTGGNANYAHSVKGRFTISRDNAKNTVYLQMNNLKPEDTAVYYCNAEQVVVGFLQAYDVWGQGTTVTVSS VL: DVVMTQSPLSLPVTLGQAASISCRSSQSLVHGDGNTYLNWIQQRPGQSPRRLIYKVSNRDSGVPDRFSGSGSGTDFTLKISRVEAEDVGVYYCMQGTHWPSTFGPGTKVDIK	3.44
AHP32919 (antibody, V domains shown) VH: QVQLQESGGGVVQPGGSLRLSCAASQSIGLLSTMGWYRQAAGKQRELVATITRGGSTNYGEFVKGRFTISRDNAKNTVYLQMNSLKPEDTAVYYCTADESWLGTQSYWGRGTRVTVSS VL: QAGLTQPPSASGTPGQGVTISCSGSSSNIGSNSVNWYQQLPGTAPKLLMHSNNERSSGVPDRFSGSKSGSSASLAISGLQSEDAADYFCGAWDDSLNGYVFGTGTKLTVL	0.772

Continued by falling EC50, values first:

EC50 [nM]	Binder
4.45	AHP29153 (antibody, V domains shown) VH: QLQQVESGGGLVQPGGSLRLSCAASRNIGILSTMGWYRQAPGKQRELVATITRGGSTNYGEFVKGRFTISRDNAKNTVYLQMNSLKPEDTAVYYCNVDESWLGTQSYWGRGTTVTVSS VL: QSVLTQPASVSGSPGQSITISCTGTSSDVGGYKYVSWYQQPPGKAPKLIIYEVTKRPSGVPDRFSGSKSGNTASLTVSGLQAEDEADYYCLSYAGSNNVFGTGTKLTVL
1.67	AHP31548 (antibody, V domains shown) VH: QVQLMQSGGGLVQPGGSLRLSCAASRNIGILSTMGWYRQAPGKQRELVATITRGGSTNYGEFVKGRFTISRDNAKNTVYLQMNSLKPEDTAVYYCNVDESWLGTQSYWGRGTTVTVSS VL: QSALTQPPSASGSPGQSVTISCTGTSSDIGTYNFVSWYQQHPGKAPKLIIYEVSKRPSGVPDRFSGSKSGNTASLTVSGLQAEDEADYYCKSYPRVFGTGTKLTAL
